According to patent publication US20250154213A1, “De Novo Designed Cortisol Biosensor” (University of Washington, priority 2023, published 2025):

Tests used:
[1] = test system: seq129.1_CID-SmBiT and mini11-LgBiT; test: Cortisol sensing with NanoBiT fusions (luminescence on cortisol titration); assay type: biochemical; conditions: seq129.1_CID-SmBiT and mini11-LgBiT mixed equimolar, cortisol 2-3 hours, DTZ 25 μM; estimated; read-out: EC50 of luminescent signal on cortisol titration
From the text: FIG. 2. Design and characterization of a cortisol-dependent heterodimer. (A) Design pipeline for cortisol-induced heterodimerization. Starting from a model of seq129.1_CID in complex with cortisol (top), we used RIFdock™ and a library of designed 3-helix bundles to generate thousands of putative ternary complexes (middle), and amino acid sequences encoding these complexes were generated with FastDesign™ and ProteinMPNN™ (bottom). Zoom-in of the designed CID ternary complex (seq129.1_CID, mini11, and cortisol) (bottom panel). (B) Size-exclusion chromatography traces of an equimolar solution of seq129.1 and mini11 (1 μM) in the presence or absence of cortisol (10 μM). (C) Schematic diagram of the designed cortisol-induced heterodimerization coupled with a binary split luciferase to create a biosensor. […]
As a proof-of-concept for the application of the designed CID as a sensor for cortisol, we genetically fused seq129.1_CID and mini11 to the SmBiT and LgBiT components of the NanoBiT™ system, respectively, which reconstitutes NanoBiT™ and generates luminescence when brought in close proximity by a molecular interaction 18.
seq129.1_CID and mini11 were genetically fused to SmBiT and LgBiT, respectively, and ordered as eblocks from IDT. […] Immediately after adding DTZ, the luminescent signal was measured on a Neo2 plate reader. […]

[2] = biological target: T1, seq129.1_CID-SmBiT; test: cell-based or functional assay
T1 chain: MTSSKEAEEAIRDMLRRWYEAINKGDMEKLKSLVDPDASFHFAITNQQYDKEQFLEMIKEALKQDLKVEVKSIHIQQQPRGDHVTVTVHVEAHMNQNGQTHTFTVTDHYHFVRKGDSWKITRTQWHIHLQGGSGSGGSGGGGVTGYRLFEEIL

[3] = test system: seq129.1_CID; test: Native mass spectrometry of the ternary complex; assay type: binding; conditions: cortisol and mini11

C[C@]12CCC(=O)C=C1CC[C@@H]1[C@@H]2[C@@H](O)C[C@@]2(C)[C@H]1CC[C@]2(O)C(=O)CO [cortisol]
EC50 [1]: 25 nM

B1: mini11-LgBiT (designed binder)
chain: MSSASTLVKTFSLCMEALSIEDPEKREEVYEKARKLAEENNDPAALFLVESIKKQHEQSGGSGGMVFTLEDFVGDWEQTAAYNLDQVLEQGGVSSLLQNLAVSVTPIQRIVRSGENALKIDIHVIIPYEGLSADQMAQIEEVFKVVYPVDDHHFKVILPYGTLVIDGVTPNMLNYFGRPYEGIAVFDGKKITVTGTLWNGNKIIDERLITPDGSMLFRVTINS
luminescent signal of reconstituted NanoBiT on titration with cortisol (the EC50 is a cortisol concentration) [2]: 25 nM

B2: mini11: designed 3-helix bundle minibinder that binds seq129.1_CID only with cortisol (protein)
chain: MSSASTLVKTFSLCMEALSIEDPEKREEVYEKARKLAEENNDPAALFLVESIKKQHEQSSSLE
ternary complex by native mass spectrometry [3]: revealed a molecular weight for the seq129.1_CID-cortisol-mini11 ternary complex
